One assay has as its target T1, nectin-2 (UniProt Q92692 32-538, limits assumed).
T1 construct: whole, on cells
T1 sequence (looked up): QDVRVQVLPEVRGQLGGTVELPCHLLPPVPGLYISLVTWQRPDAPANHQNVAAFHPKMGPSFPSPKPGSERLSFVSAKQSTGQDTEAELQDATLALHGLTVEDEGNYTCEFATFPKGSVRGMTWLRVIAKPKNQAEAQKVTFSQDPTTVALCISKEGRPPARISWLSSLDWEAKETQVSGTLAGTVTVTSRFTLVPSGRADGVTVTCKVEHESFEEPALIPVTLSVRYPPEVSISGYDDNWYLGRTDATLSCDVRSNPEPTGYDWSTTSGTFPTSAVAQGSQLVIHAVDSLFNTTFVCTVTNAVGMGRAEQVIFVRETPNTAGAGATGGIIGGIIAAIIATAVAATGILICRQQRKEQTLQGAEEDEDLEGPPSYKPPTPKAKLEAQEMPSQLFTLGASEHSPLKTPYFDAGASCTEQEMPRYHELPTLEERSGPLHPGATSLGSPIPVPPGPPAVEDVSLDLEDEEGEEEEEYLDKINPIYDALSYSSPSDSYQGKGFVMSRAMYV
Kind of assay: western blot of lysates of MDA-MB-231 cells transfected with null vector (wt cells express nectin-1, -2, -3); similar results by FACS. Background: In western blotting, separated proteins are transferred to a membrane and probed.

Another assay addresses T2, nectin-1 (UniProt Q15223 31-517, limits assumed).
T2 construct: whole, on cells
T2 sequence (looked up): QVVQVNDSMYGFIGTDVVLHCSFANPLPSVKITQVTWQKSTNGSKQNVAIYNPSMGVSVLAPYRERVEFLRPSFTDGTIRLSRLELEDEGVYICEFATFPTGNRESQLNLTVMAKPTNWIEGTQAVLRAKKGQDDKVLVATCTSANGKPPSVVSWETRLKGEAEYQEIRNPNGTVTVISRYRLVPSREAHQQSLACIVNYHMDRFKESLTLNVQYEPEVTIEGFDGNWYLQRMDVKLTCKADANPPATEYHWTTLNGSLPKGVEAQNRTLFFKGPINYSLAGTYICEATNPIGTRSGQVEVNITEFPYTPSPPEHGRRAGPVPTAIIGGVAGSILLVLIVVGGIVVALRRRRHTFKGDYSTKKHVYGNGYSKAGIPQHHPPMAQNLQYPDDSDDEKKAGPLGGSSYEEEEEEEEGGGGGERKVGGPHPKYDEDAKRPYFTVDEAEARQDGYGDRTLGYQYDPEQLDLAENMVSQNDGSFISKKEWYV
The description is as above.

B1: 14A5.2 monoclonal antibody (antibody, V domains shown)
VH: EVLLQQSGPELVKPGASVKIPCKASGYTFTDYTMDWVKQSHGKSLEWIGDINPNNDVTMYNEKFKGRATLTVDKSSSTAYMEVRSLTSEDTAVYYCVRGRGFAYWGQGTLVTVSA
VL: DIVLTQSPASLIVSLGQRATISCRASQSVSTSSNSYMHWYQQKPGQPPKLLIRFASNLESGVPARFSGSGSGTYFTLNIHPVEEEDSATYYCQHSWEIPYTFGGGTKLEIK
notes: Parental non-chimeric monoclonal antibody; also called 14A5.2 mab; 14A5.2-HRP
On to B1, for which the binding result with nectin-2 and with nectin-1 was “no binding (tested: 1 µg/ml)” in each case.

(Values after patent US20210324104A1 (INSERM INSTITUT NATIONAL DE LA SANT ET DE LA RECHERCHE M …, published 2021).)
